Assay results published in US20200024330A1.

How the values were obtained:
Assay in all cases: cell-based or functional assay
[1] = molecular target: HIV-1 Env of isolate MGRM-G-015 (HIV-1)
[2] = molecular target: HIV-1 Env of isolate MGRM-G-016 (HIV-1)
[3] = molecular target: HIV-1 92BR020 envelope glycoprotein (Env) on pseudovirus (HIV-1)
[4] = molecular target: HIV-1 92RW020 envelope glycoprotein (Env) on pseudovirus (HIV-1)
[5] = molecular target: HIV-1 Env of isolate MGRM-F1-012 (subtype F) (HIV-1)
[6] = molecular target: HIV-1 Env of isolate MGRM-G-009 (HIV-1)
[7] = molecular target: HIV-1 Env of isolate MGRM-G-013 (HIV-1)
[8] = molecular target: HIV-1 Env of isolate MGRM-G-017 (HIV-1)
[9] = molecular target: HIV-1 Env of isolate MGRM-AE-006 (HIV-1)
[10] = molecular target: HIV-1 Env of isolate MGRM-G-006 (HIV-1)
[11] = molecular target: HIV-1 Env of isolate MGRM-G-001 (HIV-1)
[12] = molecular target: HIV-1 Env of isolate MGRM-G-019 (HIV-1)
[13] = molecular target: HIV-1 Env of isolate MGRM-AE-005 (HIV-1)
[14] = molecular target: HIV-1 Env of isolate MGRM-G-004 (HIV-1)
[15] = molecular target: HIV-1 Env of isolate MGRM-AE-007 (HIV-1)
[16] = molecular target: HIV-1 Env of isolate MGRM-AE-008 (HIV-1)
[17] = molecular target: HIV-1 92UG024 envelope glycoprotein (Env) on pseudovirus (HIV-1)
[18] = molecular target: HIV-1 Env of isolate MGRM-G-014 (HIV-1)
[19] = molecular target: aMLV envelope (negative control pseudovirus)
[20] = molecular target: HIV-1 Env of isolate MGRM-G-011 (HIV-1)
[21] = molecular target: HIV-1 Env of isolate MGRM-G-027 (HIV-1)
[22] = molecular target: HIV-1 92TH021 envelope glycoprotein (Env) on pseudovirus (HIV-1)
[23] = molecular target: HIV-1 Env of isolate MGRM-AE-004 (HIV-1)
[24] = molecular target: HIV-1 NL43 envelope glycoprotein (Env) on pseudovirus (HIV-1)

Q: Which results are given for 4858_P08 (PGT-123) (antibody)?
A: IC50, pseudovirus neutralization [1]: > 50 µg/mL; IC50, pseudovirus neutralization [2]: > 50 µg/mL; IC50 (ug/ml), neutralizing activity [3]: 0.013 µg/mL; IC50, pseudovirus neutralization [3]: 0.013 µg/mL; IC80, pseudovirus neutralization [3]: 0.039 µg/mL; IC90 (pseudovirus neutralization) [3]: 0.0741 µg/mL; IC95, pseudovirus neutralization [3]: 0.134 µg/mL; IC50 (ug/ml), neutralizing activity [4]: 0.0038 µg/mL; IC50, pseudovirus neutralization [4]: 0.0038 µg/mL; IC80, pseudovirus neutralization [4]: 0.0106 µg/mL; IC90 (pseudovirus neutralization) [4]: 0.0194 µg/mL; IC95, pseudovirus neutralization [4]: 0.0343 µg/mL; IC50 (µg/mL), pseudovirus neutralization [5]: 22.2 µg/mL; IC50, pseudovirus neutralization [6]: 33.5 µg/mL; IC50, pseudovirus neutralization [7]: 3.97 µg/mL; IC50, pseudovirus neutralization [8]: 0.026 µg/mL; neutralization IC50 [9]: > 50 µg/mL; IC50, pseudovirus neutralization [10]: > 50 µg/mL; IC50, pseudovirus neutralization [11]: 0.009 µg/mL; IC50, pseudovirus neutralization [12]: 0.008 µg/mL; neutralization IC50 [13]: > 50 µg/mL; IC50, pseudovirus neutralization [14]: 0.181 µg/mL; neutralization IC50 [15]: > 50 µg/mL; neutralization IC50 [16]: > 50 µg/mL; IC50 (ug/ml), neutralizing activity [17]: > 10 µg/mL; IC50, pseudovirus neutralization [17]: > 10 µg/mL; IC80, pseudovirus neutralization [17]: > 10 µg/mL; IC90 (pseudovirus neutralization) [17]: > 10 µg/mL; IC95, pseudovirus neutralization [17]: > 10 µg/mL; IC50, pseudovirus neutralization [18]: 0.005 µg/mL; IC50, pseudovirus neutralization [19]: > 50 µg/mL; IC50, pseudovirus neutralization [20]: 14.9 µg/mL; IC50, pseudovirus neutralization [21]: 0.182 µg/mL; IC50 (ug/ml), neutralizing activity [22]: > 10 µg/mL; IC50, pseudovirus neutralization [22]: > 10 µg/mL; IC80, pseudovirus neutralization [22]: > 10 µg/mL; IC90 (pseudovirus neutralization) [22]: > 10 µg/mL; IC95, pseudovirus neutralization [22]: > 10 µg/mL; neutralization IC50 [23]: > 50 µg/mL; IC50 (ug/ml), neutralizing activity [24]: > 10 µg/mL; IC50, pseudovirus neutralization [24]: > 10 µg/mL; IC80, pseudovirus neutralization [24]: > 10 µg/mL; IC90 (pseudovirus neutralization) [24]: > 10 µg/mL; IC95, pseudovirus neutralization [24]: > 10 µg/mL

Q: With 4877_D15 (PGT-122) (antibody) as the substance, how does the IC50, pseudovirus neutralization [1] read?
A: > 50 µg/mL

Q: What about the IC50, pseudovirus neutralization [2] of the same substance?
A: > 50 µg/mL

Q: What about the IC50 (ug/ml), neutralizing activity [3] of the same substance?
A: 0.0337 µg/mL

Q: What about the IC50 (ug/ml), neutralizing activity [4] of the same substance?
A: 0.0072 µg/mL

Q: What about the IC50 (µg/mL), pseudovirus neutralization [5] of the same substance?
A: > 50 µg/mL

Q: What about the IC50, pseudovirus neutralization [6] of the same substance?
A: 0.514 µg/mL

Q: And the IC50, pseudovirus neutralization [7]?
A: 3.45 µg/mL

Q: What about the IC50, pseudovirus neutralization [8] of the same substance?
A: 0.032 µg/mL

Q: What about the neutralization IC50 [9] of the same substance?
A: > 50 µg/mL

Q: What about the IC50, pseudovirus neutralization [10] of the same substance?
A: > 50 µg/mL

Q: And the IC50, pseudovirus neutralization [11]?
A: 0.005 µg/mL

Q: What about the IC50, pseudovirus neutralization [12] of the same substance?
A: 0.016 µg/mL

Q: What about the neutralization IC50 [13] of the same substance?
A: > 50 µg/mL

Q: What about the IC50, pseudovirus neutralization [14] of the same substance?
A: 2.15 µg/mL

Q: And the neutralization IC50 [15]?
A: > 50 µg/mL

Q: And the neutralization IC50 [16]?
A: > 50 µg/mL

Q: And the IC50 (ug/ml), neutralizing activity [17]?
A: > 10 µg/mL

Q: And the IC50, pseudovirus neutralization [18]?
A: 0.008 µg/mL

Q: What about the IC50, pseudovirus neutralization [19] of the same substance?
A: > 50 µg/mL

Q: What about the Neutralization by PGT-122, IC50 [19] of the same substance?
A: > 10 µg/mL

Q: What about the Neutralization by PGT-122, IC80 [19] of the same substance?
A: > 10 µg/mL

Q: And the Neutralization by PGT-122, IC90 [19]?
A: > 10 µg/mL

Q: And the Neutralization by PGT-122, IC95 [19]?
A: > 10 µg/mL

Q: What about the IC50, pseudovirus neutralization [20] of the same substance?
A: 31.3 µg/mL

Q: What about the IC50, pseudovirus neutralization [21] of the same substance?
A: 0.606 µg/mL

Q: What about the IC50 (ug/ml), neutralizing activity [22] of the same substance?
A: > 10 µg/mL

Q: What about the neutralization IC50 [23] of the same substance?
A: > 50 µg/mL

Q: What about the IC50 (ug/ml), neutralizing activity [24] of the same substance?
A: > 10 µg/mL
